We go through 3 molecules from US20060024300A1 (published 2006).

The target in assay [1] is T1, CD20 (human, UniProt P11836 1-297).
T1 construct: whole, on cells; not clear that this entry is the whole human CD20, so it is not used; also called human CD20; CD20 antigen
T1 sequence (looked up): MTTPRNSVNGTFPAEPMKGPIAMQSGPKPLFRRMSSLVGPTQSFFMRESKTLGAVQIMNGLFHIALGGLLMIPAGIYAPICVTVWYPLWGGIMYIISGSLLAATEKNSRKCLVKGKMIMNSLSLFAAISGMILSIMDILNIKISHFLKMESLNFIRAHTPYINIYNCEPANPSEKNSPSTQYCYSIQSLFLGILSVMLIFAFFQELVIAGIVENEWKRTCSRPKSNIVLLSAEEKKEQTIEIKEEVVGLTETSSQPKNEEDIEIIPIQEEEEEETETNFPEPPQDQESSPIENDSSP
In words: Scatchard analysis, cold antibody against 125I-2H7.v16 on WIL2-S cells.
Method: All dilutions were performed in binding assay buffer (DMEM media containing 1% bovine serum albumin, 25 mM HEPES pH 7.2, and 0.01% sodium azide). […] WIL2-S cells (60,000 cells in 0.025 mL) were then added. The plate was sealed and incubated at room temperature for 24 h, then centrifuged for 15 min at 3,500 RPM. The supernatant was then aspirated and the cell pellet was washed and centrifuged. The supernatant was again aspirated, and the pellets were dissolved in 1N NaOH and transferred to tubes for gamma counting.

In assay [2] the target is T1, CD20. In words: cell-based ELISA, WIL2-S cells. (In an ELISA, binding on a coated surface is turned into a signal by an enzyme label.)
Method: To measure relative binding affinities to the CD20 antigen, a cell-based ELISA assay was developed. […] The cells were washed with PBS containing 1% FBS (assay buffer) and seeded at 250-300,000 cellwell in 96-well round bottom plates (Nunc, Roskilde, Denmark). […] The plates were buried in ice and incubated for 45 min. To remove the unbound antibody, 0.1 mL assay buffer were added to the wells. Plates were centrifuged and supernatants were removed. Cells were washed two more times with 0.2 mL assay buffer. Antibody bound to the plates was detected by adding peroxidase conjugated goat anti-human Fc antibody (Jackson ImmunoResearch, West Grove, Pa.) to the plates. After a 45 min incubation, cells were washed as described before. TMB substrate (3,3′,5,5′-tetramethyl benzidine; Kirkegaard & Perry Laboratories, Gaithersburg, Md.) was added to the plates. The reaction was stopped by adding 1 M phosphoric acid. Titration curves were fit with a four-parameter nonlinear regression curve-fitting program (KaleidaGraph, Synergy software, Reading, Pa.). The absorbance at the midpoint of the titration curve (mid-OD) and its corresponding concentration of the standard were determined. Then the concentration of each variant at this mid-OD was determined, and the concentration of the standard was divided by that of each variant.

For orientation: Kd means the equilibrium constant for the complex coming apart. A high value points to weaker binding.

B1: 2H7.v73 (antibody, IgG1)
heavy: not shown
light: DIQMTQSPSSLSASVGDRVTITCRASSSVSYLHWYQQKPGKAPKPLIYAPSNLASGVPSRFSGSGSGTDFTLTISSLQPEDFATYYCQQWSFNPPTFGQGTKVEIKRTVAAPSVFIFPPSDEQLKSGTASVVCLLNNFYPREAKVQWKVDNALQSGNSQESVTEQDSKDSTYSLSSTLTLSKADYEKHKVYACEVTHQGLSSPVTKSFNRGEC
notes: IgG1; 2H7.v16 background
Turning to B1, in the assay with CD20 [1], binding was characterised by a dissociation constant (Kd) of 1.22 nM.

B2: 2H7.v75 (antibody, IgG1)
heavy: EVQLVESGGGLVQPGGSLRLSCAASGYTFTSYNMHWVRQAPGKGLEWVGAIYPGNGDTSYNQKFKGRFTISVDKSKNTLYLQMNSLRAEDTAVYYCARVVYYSASYWYFDVWGQGTLVTVSSASTKGPSVFPLAPSSKSTSGGTAALGCLVKDYFPEPVTVSWNSGALTSGVHTFPAVLQSSGLYSLSSVVTVPSSSLGTQTYICNVNHKPSNTKVDKKVEPKSCDKTHTCPPCPAPELLGGPSVFLFPPKPKDTLMISRTPEVTCVVVDVSHEDPEVKFNWYVDGVEVHNAKTKPREEQYNATYRVVSVLTVLHQDWLNGKEYKCKVSNKALPAPIAATISKAKGQPREPQVYTLPPSREEMTKNQVSLTCLVKGFYPSDIAVEWESNGQPENNYKTTPPVLDSDGSFFLYSKLTVDKSRWQQGNVFSCSVMHEALHNHYTQKSLSLSPGK
light: DIQMTQSPSSLSASVGDRVTITCRASSSVSYLHWYQQKPGKAPKPLIYAPSNLASGVPSRFSGSGSGTDFTLTISSLQPEDFATYYCQQWSFNPPTFGQGTKVEIKRTVAAPSVFIFPPSDEQLKSGTASVVCLLNNFYPREAKVQWKVDNALQSGNSQESVTEQDSKDSTYSLSSTLTLSKADYEKHKVYACEVTHQGLSSPVTKSFNRGEC
notes: IgG1; 2H7.v16 background
On to B2, for which, in the assay with CD20 [1], the equilibrium dissociation constant (Kd) is 1.09 nM.

B3: 2H7 version 166 (antibody, human IgG1, kappa, V domains shown)
VH: EVQLVESGGGLVQPGGSLRLSCAASGYTFTSYNMHWVRQAPGKGLEWVGAIYPGNGDTSYNQKFKGRFTISVDKSKNTLYLQMNSLRAEDTAVYYCARVVYYGGDWYFDVWGQGTLVTVSS
VL: DIQMTQSPSSLSASVGDRVTITCRASSSVSYMHWYQQKPGKAPKPLIYAPSNLASGVPSRFSGSGSGTDFTLTISSLQPEDFATYYCQQWSFNPPTFGQGTKVEIKR
notes: IgG1; 2H7.v16 background; Y100b is deleted (empty new residue)
As to B3, the Relative binding in the assay with CD20 [2] was 0.99 ratio (2H7.v16 conc./variant conc.).
